Measured values reported in patent US20080058278A1, “ATTENUATION OF HYPEROXIA-INDUCED CELL DEATH WITH MITOCHONDRIAL ALDEHYDE DEHYDROGENASE” (THE CHILDREN'S MERCY HOSPITAL, priority 2006, published 2008).

What was measured:
[1] = tested on: Neo-A549 cells; assay: Necrotic cell death, trypan blue exclusion assay; type: cell-based, human; settings: 10 μM inhibitor pretreatment 30 minutes
Source text: (§1) The cultured media were collected and saved.

[2] = tested on: mtALDH-A549 cells; assay: Necrotic cell death, trypan blue exclusion assay; type: cell-based, human; settings: for necrotic cell death (percentage of stained cells to total cells): mtALDH-A549 cells, 10 μM inhibitor pretreatment 30 minutes; for necrotic cell death, trypan blue exclusion: mtALDH overexpression (mtALDH-A549)
Source text: (§2) Plasmid Construction and Transfection: For human mt ALDH plasmid construction, full-length human mtALDH cDNA without stop codon was amplified from a human lung cDNA library (Clontech, Mountain View Calif.) by RT-PCR using following primers, sense: […] (SEQ ID NO. 1), antisense: […] (SEQ ID NO. 2). The resulting human mtALDH cDNA was subcloned into the plasmid vector pcDNA3.1 (Invitrogen, Carlsbad, Calif.). The mtALDH sequence (SEQ ID NO. 3) was confirmed by direct nucleotide sequencing. mtALDH-pcDNA3 and empty pcDNA3.1 plasmids were transfected into A549 cells using LipofectAMINE (Invitrogen, Carlsbad, Calif.). The transfected cells were then selected by G418 sulfate at 500 μg/mL for ten days. A single clone was selected by limited dilution and mtALDH protein expression was confirmed by Western blotting with anti-V5 antibody (Invitrogen, Carlsbad, Calif.).
as §1

[3] = tested on: mtALDH-A549 cells; type: cell-based; settings: 10 μM inhibitor pretreatment 30 minutes, 48-hour hyperoxic exposure (95% O2, 5% CO2)
Source text: as §2, §1

[4] = tested on: Neo-A549 cells; settings: 10 μM inhibitor pretreatment 30 minutes, 48-hour hyperoxic exposure (95% O2, 5% CO2)
Protocol: Cell culture and Cell Treatment: A549 cells were purchased from American Type culture collection (ATCC, Manassas, Va.) and grown in Dulbecco's Modified Eagle Medium (DMEM) containing 10% fetal bovine serum, 50 μg/mL penicillin and 50 μg/mL streptomycin in 5% CO2 at 37° C. Normoxic exposure of the cells was conducted under room air and 5% CO2 in a humidified cell culture incubator at 37° C. Hyperoxic exposure of the cells was conducted in a humidified chamber (Billups and Rothenberg, Del Mar, Calif.) and the chamber was flushed with 95% O2, 5% CO2 (hyperoxia) at a flow rate of 10 liters per minute for 15 minutes prior to incubation at 37° c. In U0126 and LY294002 pretreatment experiments, cells were treated with or without 10 μM U0216 or LY294002 (two well-known inhibitors) for 30 minutes prior to normoxic or hyperoxic exposure.
The lactate dehydrogenase (LDH) assay kit was from Biovision (Mountain View, Calif.) and LDH activity was measured per manufacture's instruction. Briefly, cells were incubated in an incubator (5% CO2, 37° C.) for the appropriate time of treatment. The cultured media were collected and saved. […] The absorbance of all samples at 490 nm was measured using a microplate reader. The cytotoxicity was determined by the percentage of LDH activity in cultured medium over combined LDH activities of the cultured medium and cell lysate.

[5] = tested on: mtALDH-A549 cells; assay: Intracellular and mitochondrial ROS levels by flow cytometry; type: cell-based, human
Protocol: Assessment of Intracellular and Mitochondrial ROS Levels: After normoxic or hyperoxic treatment, cultured cells were stained with 10 μM of 2′,7′-dicholordihydrofluorescein diacetate, succinimidyl ester (OxyBURST® Green H2DCFDA (2′,7′-dichlorodihydrofluorescin diacetate)), SE, Molecular Probe, Oreg.) for 10 minutes. The stained cells were washed three times with PBS and then trypsinized with 0.025% trypsin and 0.05% EDTA. The resuspended cells were subjected to fluorescent intensity measured by flow cytometry. For mitochondria-derived ROS measurement, cells were incubated with 10 μM dihydrorhodamaine 123 (Molecular Probe, OR) for 15 minutes. The stained cells were washed three times with PBS and then trypsinized with 0.25% trypsin, 0.05% EDTA. The resuspended cells were subjected to rhodamine 123 fluorescent intensity measurement by flow cytometry. Statistical Analysis: The results are expressed as the mean±SEM of data obtained from two or more experiments; or where appropriate, as mean±SD. Statistical analysis was performed using the student t test for paired comparisons and ANOVA for multiple comparisons. A value of p<0.05 was considered significant.

[6] = biological target: T1, mtALDH (Homo sapiens, UniProt P05091); assay: mtALDH activity assay (NADH formation at 340 nm); type: cell-based; settings: cell homogenate supernatant, p<0.01, n=6
T1 construct: endogenous in cells; host or cells: A549 human lung type II epithelial cells (isolated mitochondrial protein or cell homogenate supernatant)
T1 sequence (P05091 18-517): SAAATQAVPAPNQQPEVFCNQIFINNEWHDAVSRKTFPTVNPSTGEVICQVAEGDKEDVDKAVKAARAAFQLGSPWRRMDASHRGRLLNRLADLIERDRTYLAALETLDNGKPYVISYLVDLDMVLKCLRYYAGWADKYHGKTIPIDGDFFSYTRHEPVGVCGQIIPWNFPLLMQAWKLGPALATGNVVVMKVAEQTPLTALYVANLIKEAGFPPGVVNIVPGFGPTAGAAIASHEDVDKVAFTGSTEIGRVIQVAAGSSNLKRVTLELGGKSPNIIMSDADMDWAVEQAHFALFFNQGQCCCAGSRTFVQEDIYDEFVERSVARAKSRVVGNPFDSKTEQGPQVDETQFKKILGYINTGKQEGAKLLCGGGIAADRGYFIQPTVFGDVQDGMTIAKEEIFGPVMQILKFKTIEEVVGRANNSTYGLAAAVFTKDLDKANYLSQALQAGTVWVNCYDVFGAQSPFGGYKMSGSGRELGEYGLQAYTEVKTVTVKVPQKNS
Protocol: mtALDH Activity Assay: mtALDH activity was measured as described previously (9). Neo-A549 and mtALDH A549 cells cultured on plates were collected in buffer of 50 mM Tris-HCl, pH 8.5. Resuspended cells were sonicated at setting 4 for 5 seconds by VirSonic sonicator from VirTis (Gardiner, N.Y.). The cell homogenates were centrifuged at 12,000×g for 10 minutes. The supernatants were saved and protein concentration was determined. Mitochondria were isolated from cultured cells using a mitochondria isolation kit from Pierce (Rockford, Ill.). The enzyme activity assay was carried out in 100 μL of 50 mM Tris-HCl, pH 8.5 containing 50 μg prepared protein, 15 μM propionaldehyde, 1 mM NAD and 1 mM 4-methylpyrazole. The ALDH activity was determined by spectrometer for NADH formation at 340 nm.

[7] = tested on: Akt; assay: Akt phosphorylation and total Akt, Western blotting; type: cell-based, human
Protocol: (§3) Western Blotting Analysis: Antibodies were purchased from Cell Signaling Technology (Beverly, Mass.) and they were used according to manufacturer's instructions. Cultured cells after treatment were washed with cold PBS three times, and the 300 μl of sample lysis buffer (62.5 mM Tris-HCl pH 6.8, 2% w/v SDS, 10% glycerol, 200 mM dithiothreitol, and protease cocktails) was added to each plate. Cell lysates were centrifuged at 12,000×g for 10 minutes. The supernatants were saved for analysis. Protein concentration was determined by bicinchoninic acid (BCA) protein assay kit (Sigma, St. Louis, Mo.). Samples containing 50 μg of protein in loading sample buffer were boiled for 5 minutes and loaded on 12% Tris-Glycine SDS-PAGE gels. Gels were run at 120 V for approximately two hours and transferred overnight at 20 V to nitrocellulose membranes. Membranes were incubated with the blocking buffer containing 5% non-fat mile in PBST (0.1% Tween-20 in PBS) for one hour, washed with PBST and incubated overnight with the primary antibody against either phosphorylated ERK or phosphorylated Akt (Ser473). The membranes were washed in PBST and proteins were visualized using horseradish peroxidase (HRP)-conjugated anti-rabbit IgG and the enhanced chemiluminescence (Amersham Bioscience, Piscataway, N.J.). The membranes were stripped using a standard stripping solution (62.5 mM Tris-HCl, pH 6.8, 2% SDS and 100 mM β-mercaptoethanol) at 50° C., and reprobed with nonphosphorylated ERK, nonphosphorylated Akt and β-actin antibodies. Phosphorylated ERK and phosphorylated Akt protein band intensities on autoradiogram were analyzed with Image-Quant (Molecular Dynamics, Sunnyvale, Calif.) and normalized by nonphosphorylated ERK, nonphosphorylated Akt or β-actin in the same sample, respectively.

[8] = tested on: mtALDH-A549 cells; assay: Apoptotic cell death, Annexin V staining and flow cytometry; type: cell-based, human; settings: mtALDH overexpression (mtALDH-A549), 48-hour hyperoxic treatment; Neo-A549 0.84%
Protocol: Analysis of Apoptotic Cells: The Apoptosis Detection kit was from R&D System (Minneapolis, Minn.). Treated cells were trypsinized and collected by centrifugation at 500×g for 5 minutes. Cells were washed with cold PBS once and resuspended in 100 uL binding buffer containing 10 mM HEPES pH 7.4, 150 mM NaCl, 5 mM KCl, 1 mM MgCl2 and 1.8 mM CaCl2. Cells were stained with Annexin V-FITC (0.05 μg per sample) for 15 minutes according to manufacturer's instructions. The stained cells were then subjected to flow cytometry analysis.

[9] = tested on: ERK; assay: ERK phosphorylation, Western blotting; type: cell-based, human; settings: 48-hour normoxic conditions, normalized by total ERK
Protocol: as §3, with “The membranes were washed in PBST and proteins were visualized using horseradish peroxidase (HRP)-conjugated anti-rabbit IgG and the enhanced chemiluminescence (Amersham Bioscience, Piscataway, N.J.). The membranes were stripped using a standard stripping solution (62.5 mM Tris-HCl, pH 6.8, 2% SDS and 100 mM β-mercaptoethanol) at 50° C., and reprobed with nonphosphorylated ERK, nonphosphorylated Akt and β-actin antibodies.” left out

[10] = 48-hour hyperoxic exposure (95% O2, 5% CO2)

Molecule: O=c1cc(N2CCOCC2)oc2c(-c3ccccc3)cccc12 [LY294002]
- necrotic cell death (percentage of stained cells to total cells) [1, 10]: 86.6%
- necrotic cell death (percentage of stained cells to total cells) ([1]; 48-hour normoxic exposure): 9.0%
- necrotic cell death (percentage of stained cells to total cells) [2, 10]: 28.0%
- necrotic cell death (percentage of stained cells to total cells) ([2]; 48-hour normoxic exposure): 4.3%

Molecule: N#CC(=C(/N)Sc1ccccc1N)/C(C#N)=C(\N)Sc1ccccc1N [U0126]
- necrotic cell death (LDH cytotoxicity) [3]: 9.4%
- necrotic cell death (percentage of stained cells to total cells) [1, 10]: 44.5%
- necrotic cell death (percentage of stained cells to total cells) ([1]; 48-hour normoxic exposure): 12.6%
- necrotic cell death (LDH cytotoxicity) [4]: 14.1%
- necrotic cell death (percentage of stained cells to total cells) [2, 10]: 26.0%
- necrotic cell death (percentage of stained cells to total cells) ([2]; 48-hour normoxic exposure): 11.6%

B1: mtALDH: human mitochondrial aldehyde dehydrogenase (SEQ ID NO. 3) overexpressed as V5 fusion protein in A549 cells by pcDNA3.1 plasmid transfection (protein, listed as Homo sapiens)
chain: MLRAAARFGPRLGRRLLSAAATQAVPAPNQQPEVFCNQIFINNEWHDAVSRKTFPTVNPSTGEVICQVAEGDKEDVDKAVKAARAAFQLGSPWRRMDASHRGRLLNRLADLIERDRTYLAALETLDNGKPYVISYLVDLDMVLKCLRYYAGWADKYHGKTIPIDGDFFSYTRHEPVGVCGQIIPWNFPLLMQAWKLGPALATGNVVVMKVAEQTPLTALYVANLIKEAGFPPGVVNIVPGFGPTAGAAIASHEDVDKVAFTGSTEIGRVIQVAAGSSNLKRVTLELGGKSPNIIMSDADMDWAVEQAHFALFFNQGQCCCAGSRTFVQEDIYDEFVERSVARAKSRVVGNPFDSKTEQGPQVDETQFKKILGYINTGKQEGAKLLCGGGIAADRGYFIQPTVFGDVQDGMTIAKEEIFGPVMQILKFKTIEEVVGRANNSTYGLAAAVFTKDLDKANYLSQALQAGTVWVNCYDVFGAQSPFGGYKMSGSGRELGEYGLQAYTEVKTVTVKVPQKNS
modifications: V5 tag
- intracellular ROS level (H2DCFDA staining) ([5]; 24-hour hyperoxia): increased only approximately two fold
- intracellular ROS level versus Neo-A549 cells ([5]; 24-hour hyperoxia, p<0.001): significantly decreased
- mitochondrial ROS level (dihydrorhodamine 123) versus Neo-A549 cells ([5]; 24-hour hyperoxic exposure, p<0.001): significantly decreased
- total mtALDH activity in mtALDH-A549 cells compared to Neo-A549 cells [6]: increased more than two fold
- Akt phosphorylation in mtALDH-A549 cells versus Neo-A549 cells ([7]; 0, 24 and 48-hour hyperoxic exposure): 2-3 times
- phosphorylated Akt level in mtALDH-A549 cells versus Neo-A549 cells ([7]; first 24-hour culture under normoxic conditions): two-fold higher
- total Akt in mtALDH-A549 cells compared to Neo-A549 cells ([7]; prior to hyperoxic treatment (0 hour)): about 1.8 fold
- apoptotic cell death (Annexin V positive cells) [8]: 0.48%
- necrotic cell death, trypan blue exclusion ([2]; 24-hour hyperoxic exposure, Neo-A549 25.3%): 6.5%
- necrotic cell death, trypan blue exclusion ([2]; 48-hour hyperoxic exposure, Neo-A549 50.5%): 9.1%
- necrotic cell death, trypan blue exclusion ([2]; 72-hour hyperoxic exposure, Neo-A549 52.4%): 15.1%
- ERK phosphorylation in mtALDH-A549 cells compared to Neo-A549 cells [9]: seven-fold increase
